Test results taken from paper PMC11290222.
Like-named read-outs stand apart in the source and are kept apart here.

Assays:
[1] = molecular target: Ultrabithorax full-length fused to the N-terminal half of Venus (VN-Ubx) (Drosophila) (UniProt P83949); test: split reporter (BiFC, NanoBiT); BiFC in HEK293 cells co-transfected with VN- and VC-plasmids and pCAG-mCherry; read 48 h after transfection; percent = Venus fluorescent cells in one hundred red fluorescent cells, three independent triplicates
[2] = molecular target: Ubx with E19G in the homeodomain, fused to VN (Ubx^E19G) (Drosophila); test: as above
[3] = molecular target: Ubx homeodomain fused to VN (UbxHD) (Drosophila); test: as above
Sequence of Ubx homeodomain fused to VN (UbxHD) (Drosophila) (P83949 whole entry, the tested form may be a part): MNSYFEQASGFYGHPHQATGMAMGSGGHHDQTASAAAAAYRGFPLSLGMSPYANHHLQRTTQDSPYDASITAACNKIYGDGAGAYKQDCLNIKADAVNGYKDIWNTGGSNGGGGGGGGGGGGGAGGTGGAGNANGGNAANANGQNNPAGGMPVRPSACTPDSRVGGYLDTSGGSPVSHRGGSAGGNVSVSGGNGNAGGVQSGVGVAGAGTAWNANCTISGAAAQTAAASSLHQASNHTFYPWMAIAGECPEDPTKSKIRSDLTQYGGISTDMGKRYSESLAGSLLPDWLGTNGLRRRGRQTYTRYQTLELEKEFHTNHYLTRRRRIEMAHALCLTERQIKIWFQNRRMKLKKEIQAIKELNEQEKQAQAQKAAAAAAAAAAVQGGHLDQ

[4] = molecular target: Antp^AAAA-Ubx BiFC complex (YPWM mutant Antp with VNUbx) (Drosophila) (UniProt P02833); test: split reporter (BiFC, NanoBiT) + FRET or BRET; BiFC-FRET in HEK293 cells: Venus reconstituted by the Antp-Ubx BiFC as acceptor, third protein fused to ECFP as donor; confocal spectral imaging 48 h after transfection; E-value by FRETTY in ImageJ
[5] = molecular target: AntpΔHD-Ubx BiFC pair (VC-AntpΔHD with VNUbx) (Drosophila) (UniProt P02833); test: as above
[6] = molecular target: Ubx homeodomain fused to VN (UbxHD) (Drosophila); test: split reporter (BiFC, NanoBiT); BiFC in HEK293 cells co-transfected with VN- and VC-plasmids and pCAG-mCherry; read 48 h after transfection; percent = Venus fluorescent cells in one hundred red fluorescent cells, three independent triplicates; remark: listed apart in the source

In the case of “Antp lacking homeodomain helixes 1 and 2, fused to VC (AntpΔH1-2) (from UniProt P02833 1-378) (natural protein)”, the percent of transfected cells positive in BiFC [1] is reported as 12%.

With “Antennapedia full-length fused to the C-terminal half of Venus (VC-Antp) (from UniProt P02833 1-378) (natural protein)” the percent of transfected cells positive in BiFC [2] was 86%.

In the case of “TBP without the PolyQ stretch, fused to a Venus half for BiFC (TBPΔQ) (from UniProt P20227 1-353) (natural protein)”, the percent of transfected cells positive in BiFC [3] is reported as 15% and the percent of transfected cells positive in BiFC [1] is reported as 34%.

For “Antp homeodomain with E19G, fused to VC (AntpHD^E19G) (domain or fragment)”, the percent of transfected cells positive in BiFC [2] was 67% and the percent of transfected cells positive in BiFC [1] was 60%.

Work on “Antp homeodomain fused to VC (AntpHD) (domain or fragment)” yielded a percent of transfected cells positive in BiFC [3] of 96%.

For “Antp lacking homeodomain helix 1, fused to VC (AntpΔH1) (from UniProt P02833 1-378) (natural protein)”, the percent of transfected cells positive in BiFC [1] was 24%.

“Antp with the homeodomain deleted, fused to VC (AntpΔHD) (from UniProt P02833 1-378) (natural protein)” showed a percent of transfected cells positive in BiFC [1] of 6%.

B1: Extradenticle fused to ECFP (natural protein)
chain: MEDPNRMLAHTGGMMAPQGYGLSGQDDGQNAGSENEVRKQKDIGEILQQIMSISEQSLDEAQARKHTLNCHRMKPALFSVLCEIKEKTVLSIRNTQEEEPPDPQLMRLDNMLIAEGVAGPEKGGGGAAAASAAAASQGGSLSIDGADNAIEHSDYRAKLAQIRQIYHQELEKYEQACNEFTTHVMNLLREQSRTRPITPKEIERMVQIIHKKFSSIQMQLKQSTCEAVMILRSRFLDARRKRRNFSKQASEILNEYFYSHLSNPYPSEEAKEELARKCGITVSQVSNWFGNKRIRYKKNIGKAQEEANLYAAKKAAGASPYSMAGPPSGTTTPMMSPAPPQDSMGYPMGSGGYDQQQPYDNSMGGYDPNLHQDLSP
B1 gave an FRET E value [4] of 0.16 and an FRET E value [5] of 0.12.

B2: TATA-binding protein fused to a Venus half for BiFC (TBP) (natural protein)
chain: MDQMLSPNFSIPSIGTPLHQMEADQQIVANPVYHPPAVSQPDSLMPAPGSSSVQHQQQQQQSDASGGSGLFGHEPSLPLAHKQMQSYQPSASYQQQQQQQQLQSQAPGGGGSTPQSMMQPQTPQSMMAHMMPMSERSVGGSGAGGGGDALSNIHQTMGPSTPMTPATPGSADPGIVPQLQNIVSTVNLCCKLDLKKIALHARNAEYNPKRFAAVIMRIREPRTTALIFSSGKMVCTGAKSEDDSRLAARKYARIIQKLGFPAKFLDFKIQNMVGSCDVKFPIRLEGLVLTHCNFSSYEPELFPGLIYRMVRPRIVLLIFVSGKVVLTGAKVRQEIYDAFDKIFPILKKFKKQS
B2 showed a percent of transfected cells positive in BiFC [6] of 41%.
